Test results from publication PMC12738837, “Structure of Trypanosoma peroxisomal import complex unveils conformational heterogeneity” (Nature Communications, 2025).
Residue numbers refer to the chain shown, from its start. Numbers in names are those of the source. Where “and” joins values, the source holds several entries; their conditions need not be identical. Identical values can stand only once. Like-named read-outs stand apart in the source and are kept apart here.

How the values were obtained:
[1] = target: Pex5eTPR (wild type) mixed beforehand with the PTS1 peptide of MDH (Trypanosoma cruzi) (UniProt Q4DPQ9); assay: ITC; Pex14NTD in the syringe injected into Pex5eTPR + PTS1 peptide in the cell; 20 mM sodium phosphate, 100 mM NaCl, pH 6.5, 25 °C; independent model
[2] = target: Pex5eTPR(N353E) mixed beforehand with the PTS1 peptide of MDH (Trypanosoma cruzi) (UniProt Q4DPQ9); assay: as above
[3] = target: Pex5eTPR(Y358A) mixed beforehand with the PTS1 peptide of MDH (Trypanosoma cruzi) (UniProt Q4DPQ9); assay: as above
[4] = target: Pex5eTPR (truncated Pex5, extended TPR domain with one Wxxx(F/Y) motif; residues 314-666), Trypanosoma cruzi (Trypanosoma cruzi) (UniProt Q4DPQ9); assay: ITC; Pex14NTD (175 uM, syringe) injected into Pex5eTPR in the cell, in the absence of PTS1 peptide; 20 mM sodium phosphate, 100 mM NaCl, pH 6.5, 25 °C
[5] = target: Pex5eTPR(GSGS) (Trypanosoma cruzi) (UniProt Q4DPQ9); assay: as above
[6] = target: Pex5eTPR(N353E) (Trypanosoma cruzi) (UniProt Q4DPQ9); assay: as above
[7] = target: Pex5eTPR(Y358A) (Trypanosoma cruzi) (UniProt Q4DPQ9); assay: as above
[8] = target: Pex5_(eTPR) + PTS1 (complex of Pex5_(eTPR) with the PTS1 peptide, prepared before ITC) (Trypanosoma cruzi) (UniProt Q4DPQ9); assay: ITC; Pex14NTD (175 μM) injected into Pex5_(eTPR) + PTS1 (20 μM + 50 μM peptide) in the cell; 20 mM sodium phosphate, 100 mM NaCl, pH 6.5; 25 °C
[9] = target: Pex5_(eTPR) with a GSGS-spacer between the Pex5 TPR domain and Wxxx(F/Y) motif + PTS1 peptide (Trypanosoma cruzi) (UniProt Q4DPQ9); assay: as above
[10] = target: Pex5_(eTPR)(N353E) + PTS1 peptide (Trypanosoma cruzi) (UniProt Q4DPQ9); assay: as above
[11] = target: Pex5_(eTPR)(Y358A) + PTS1 peptide (Trypanosoma cruzi) (UniProt Q4DPQ9); assay: as above
[12] = target: MDH(GSGS) linker variant (Trypanosoma cruzi); assay: ITC; Pex5_(eTPR) (250 μM) injected into MDH (25 μM) in the cell; 100 mM Hepes, 150 mM NaCl, 2 mM β-mercaptoethanol, pH 7.5; 25 °C
[13] = target: MDH(Δ62–70) (Trypanosoma cruzi); assay: as above
[14] = target: 6-FAM labeled PTS1 peptide; assay: fluorescence polarisation
[15] = target: PTS1 peptide derived from MDH (NH2-ARSKL-COOH) (Trypanosoma cruzi); assay: ITC; Pex5_(eTPR) with the PTS1 peptide (NH2-ARSKL-COOH); who was in the cell is not stated for the peptide; 25 °C
[16] = target: glycosomal malate dehydrogenase (MDH, residues 1–323) (Trypanosoma cruzi) (UniProt Q4DRD8); assay: ITC; Pex5_(eTPR) (250 μM) injected into MDH (25 μM) in the cell; 100 mM Hepes, 150 mM NaCl, 2 mM β-mercaptoethanol, pH 7.5; 25 °C
[17] = target: MDH(GSGS), glycosomal malate dehydrogenase with a GSGS linker between MDH and its PTS1 (Trypanosoma cruzi); assay: ITC; Pex5eTPR in the syringe injected into MDH in the cell; 100 mM Hepes, 150 mM NaCl, 2 mM beta-mercaptoethanol, pH 7.5, 25 °C; independent model; single titrations (replicates), each fitted by itself
[18] = target: glycosomal malate dehydrogenase (MDH), wild type (Trypanosoma cruzi); assay: as above
[19] = target: 6-FAM labeled PTS1 peptide; assay: fluorescence polarisation; remark: listed apart in the source
[20] = target: T1, PTS1 peptide derived from MDH (NH2-ARSKL-COOH) (Trypanosoma cruzi); assay: ITC; Pex5_(eTPR) with the PTS1 peptide (NH2-ARSKL-COOH); who was in the cell is not stated for the peptide; 25 °C
T1 chain: ARSKL

[21] = target: T2, glycosomal malate dehydrogenase (MDH, residues 1–323) (Trypanosoma cruzi), Q4DRD8; assay: ITC; Pex5_(eTPR) (250 μM) injected into MDH (25 μM) in the cell; 100 mM Hepes, 150 mM NaCl, 2 mM β-mercaptoethanol, pH 7.5; 25 °C
T2 chain: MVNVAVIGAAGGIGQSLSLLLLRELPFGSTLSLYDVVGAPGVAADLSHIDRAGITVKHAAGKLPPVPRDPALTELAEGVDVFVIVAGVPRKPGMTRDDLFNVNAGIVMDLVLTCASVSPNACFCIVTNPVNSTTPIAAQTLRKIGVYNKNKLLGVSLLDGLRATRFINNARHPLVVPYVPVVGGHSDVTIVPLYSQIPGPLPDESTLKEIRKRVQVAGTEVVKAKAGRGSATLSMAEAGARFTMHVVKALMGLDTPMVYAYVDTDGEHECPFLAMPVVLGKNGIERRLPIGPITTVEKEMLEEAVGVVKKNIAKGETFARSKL

[22] = target: T3, glycosomal malate dehydrogenase (MDH, residues 1–323) (Trypanosoma cruzi, UniProt Q4DRD8 1-323); assay: as above; conditions: both partners purified
T3 construct: glycosomal malate dehydrogenase (MDH), Trypanosoma cruzi, residues 1-323, UniProt Q4DRD8; Tetramer (two dimers related by D2 symmetry) by cryo-EM; also called cargo; MDH tetramer; source: E. coli BL21 (DE3), purified (Ni-NTA, SEC)
T3 sequence (looked up): T2 chain

[23] = target: Pex5_(eTPR) (residues 314–666), truncated Pex5 containing an extended TPR domain with a single Wxxx(F/Y) motif (Trypanosoma cruzi, UniProt Q4DPQ9 316-668); assay: ITC; Pex5_(eTPR) with the PTS1 peptide (NH2-ARSKL-COOH); who was in the cell is not stated for the peptide; 25 °C; conditions: both partners purified

N-terminal domain of Pex14 (Pex14NTD), wild type (domain or fragment)
Ka [1]: 1.9e+07 M⁻¹ | Ka [2]: 2.24e+07 M⁻¹ | Ka [3]: 1.24e+07 M⁻¹

N-terminal domain of Pex14 (Pex14NTD; residues 21-85), Trypanosoma cruzi (domain or fragment)
stoichiometry N [4]: 0.657 | Kd [5]: 122 nM | stoichiometry N [5]: 0.568 | Kd [6]: 48 nM | stoichiometry N [6]: 0.738 | Kd [7]: 119 nM | stoichiometry N [7]: 0.762

N-terminal domain of Pex14 (Pex14NTD; residues 21–85) (domain or fragment)
Kd [8]: 53 nM | dH [8]: -64.5 kJ/mol | stoichiometry N [8]: 0.671 | Kd [9]: 178 nM | dH [9]: -52.6 kJ/mol | stoichiometry N [9]: 0.7 | Kd [10]: 45 nM | dH [10]: -57.8 kJ/mol | stoichiometry N [10]: 0.659 | Kd [11]: 81 nM | dH [11]: -57.4 kJ/mol | stoichiometry N [11]: 0.88

Pex5_(eTPR) (residues 314–666), truncated Pex5 containing an extended TPR domain with a single Wxxx(F/Y) motif (from UniProt Q4DPQ9 316-668) (domain or fragment)
Kd [12]: 148 nM | dH [12]: -24 kJ/mol | stoichiometry N [12]: 0.543 | Kd [13]: 1000 nM | dH [13]: -25.4 kJ/mol | stoichiometry N [13]: 0.5

Pex5_(eTPR) in presence of excess Pex14NTD (from UniProt Q4DPQ9 316-668) (complex)
Kd [14]: 80 nM

Pex5_(eTPR)(Δ470–480) (from UniProt Q4DPQ9 316-668) (domain or fragment)
Kd [15]: 420 nM | dH [15]: -26.4 kJ/mol | stoichiometry N [15]: 1.04 | Kd [16]: 102 nM | dH [16]: -28.8 kJ/mol | stoichiometry N [16]: 0.452

Pex5eTPR, truncated Pex5 with the extended TPR domain and a single Wxxx(F/Y) motif, wild type (from UniProt Q4DPQ9 314-666) (domain or fragment)
Ka [17]: 5.79e+06 M⁻¹ and 8.29e+06 M⁻¹ | Kd [17]: 173 nM and 121 nM | stoichiometry N [17]: 0.722 and 0.503 | Ka [18]: 2.03e+06 M⁻¹ and 2.77e+06 M⁻¹ and 2.21e+06 M⁻¹ | Kd [18]: 492 nM and 361 nM and 453 nM | stoichiometry N [18]: 0.309 and 0.622 and 0.265

Pex14NTD(A48F) (domain or fragment)
Kd [8]: 121 nM | dH [8]: -76.5 kJ/mol | stoichiometry N [8]: 0.608 | Ka [1]: 8.24e+06 M⁻¹ | Kd [4]: 59 nM | stoichiometry N [4]: 0.68

Pex14NTD(Q52A) (domain or fragment)
Kd [8]: 54 nM | dH [8]: -65.7 kJ/mol | stoichiometry N [8]: 0.664 | Ka [1]: 1.86e+07 M⁻¹ | Kd [4]: 17 nM | stoichiometry N [4]: 0.647

B1: Pex5_(eTPR) (residues 314–666), truncated Pex5 containing an extended TPR domain with a single Wxxx(F/Y) motif, Q4DPQ9 316-668 (domain or fragment)
chain: MDDGALDNAADVEEWVREYAEAQEQLQRVQNETNYPFEPNNPYMYHDKPMEEGIAMLQLANMAEAALAFEAVCQKEPENVEAWRRLGTTQAENEKDCLAIIALNHARMLDPKDIAVHAALAVSHTNEHNVGAALQSLRSWLLSQPQYEHLGLVDLREVAADEGLDEVPEENYFFAAPSEYRDCCTLLYAAVEMNPNDPQLHASLGVLHNLSHRFDEAAKNFRRAVELRPDDAHMWNKLGATLANGNRPQEALEAYNRALDINPGYVRVMYNMAVSYSNMAQYPLAAKHITRAIALQAGGTNPQGEGSRIATRGLWDLLRMTLNLMDRSDLVEASWQQDLTPFLREFGLEEMAV
modifications: not checked
Kd [19]: 254 nM | dH [20]: -21 kJ/mol | stoichiometry N [20]: 0.933 | dH [21]: -26.5 kJ/mol | stoichiometry N [21]: 0.398

B2: Pex5_(eTPR)(R625A, D629A) (domain or fragment)
chain: B1 chain with V16A, R156Q, M234T, R312A, D316A, R344K, E350D
notes: source: E. coli BL21 (DE3), purified as wild type (Ni-NTA, SEC)
dH [22]: -22.5 ± 0.5 kJ/mol | stoichiometry N [22]: 0.5 ± 0.006

B3: Pex5_(eTPR)(P490R) (domain or fragment)
chain: B1 chain with V16A, R156Q, P177R, M234T, R344K, E350D
notes: as for B2
dH [22]: -26.9 ± 0.9 kJ/mol | stoichiometry N [22]: 0.292 ± 0.006

B4: PTS1 peptide derived from MDH (NH2-ARSKL-COOH) (peptide)
peptide: H-ARSKL-OH
notes: short peptide encompassing PTS1 of T. cruzi glycosomal MDH, residues 319-ARSKL-323; also called MDH-derived PTS1 peptide
Kd [23]: 135 ± 19 nM
